Where two headings read alike, the source gives them in different places.
Tests used:
TGF-β2 [1] = molecular target: T1, TGF-β2 (UniProt P61812)
T1 sequence (looked up): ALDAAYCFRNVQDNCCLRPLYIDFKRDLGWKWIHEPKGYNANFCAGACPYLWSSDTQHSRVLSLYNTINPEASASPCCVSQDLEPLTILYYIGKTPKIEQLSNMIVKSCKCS

TGF-β2 [2] = molecular target: T1, TGF-β2; assay: SPR; average of cycles 10, 12, 14, TGF-B2
TGF-β3 [3] = molecular target: T2, TGF-β3 (UniProt P10600); assay: SPR; cycle 14, TGF-B3
T2 sequence (looked up): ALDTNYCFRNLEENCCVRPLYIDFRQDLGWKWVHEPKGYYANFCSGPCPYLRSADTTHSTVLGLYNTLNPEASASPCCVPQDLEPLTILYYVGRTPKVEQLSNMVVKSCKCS

TGF-β2 [4] = molecular target: T1, TGF-β2; assay: SPR; cycle 14, TGF-B2
TGF-β2 [5] = molecular target: T1, TGF-β2; assay: cell-based or functional assay
TGF-β3 [6] = molecular target: T2, TGF-β3; assay: cell-based or functional assay
TGF-β1 [7] = molecular target: TGF-β1 (UniProt P01137); assay: cell-based or functional assay
TGF-β1 [8] = molecular target: TGF-β1 (UniProt P01137); assay: SPR; average of cycles 10, 12, 14, TGF-B1
TGF-β2 [9] = molecular target: T1, TGF-β2; assay: SPR; cycle 12, TGF-B2
TGF-β3 [10] = molecular target: T2, TGF-β3; assay: SPR; cycle 12, TGF-B3
TGF-β3 [11] = molecular target: T2, TGF-β3
TGF-β1 [12] = molecular target: TGF-β1 (UniProt P01137); assay: SPR; cycle 10, TGF-B1
TGF-β1 [13] = molecular target: TGF-β1 (UniProt P01137)
TGF-β1 [14] = molecular target: TGF-β1 (UniProt P01137); assay: SPR; cycle 14, TGF-B1
TGF-β2 [15] = molecular target: T1, TGF-β2; assay: SPR; cycle 10, TGF-B2
TGF-β2 [16] = molecular target: T1, TGF-β2; remark: listed apart in the source
TGF-β3 [17] = molecular target: T2, TGF-β3; assay: SPR; average of cycles 10, 12, 14, TGF-B3
TGF-β3 [18] = molecular target: T2, TGF-β3; assay: SPR; cycle 10, TGF-B3
TGF-β2 [19] = molecular target: T1, TGF-β2; assay: cell-based or functional assay; parameters: unit not given beside the values
TGF-β3 [20] = molecular target: T2, TGF-β3; assay: cell-based or functional assay; parameters: unit not given beside the values
TGF-β1 [21] = molecular target: TGF-β1 (UniProt P01137); assay: cell-based or functional assay; parameters: unit not given beside the values
TGF-β1 [22] = molecular target: TGF-β1 (UniProt P01137); remark: listed apart in the source
TGF-β3 [23] = molecular target: T2, TGF-β3; remark: listed apart in the source
TGF-β1 [24] = molecular target: TGF-β1 (UniProt P01137); assay: SPR; cycle 12, TGF-B1

UniProt P01137, sequence (P01137 279-390 limits assumed): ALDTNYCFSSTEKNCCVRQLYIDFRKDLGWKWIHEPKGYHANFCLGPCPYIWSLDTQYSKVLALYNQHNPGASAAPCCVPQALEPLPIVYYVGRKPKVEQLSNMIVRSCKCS

IC50 (read off the curve) (TGF-β2 [1]): 200 pM
Kd (TGF-β2 [2]): 79.2 pM
koff (TGF-β2 [2]): 5.23e-05 s⁻¹
kon (TGF-β2 [2]): 662000 M⁻¹ s⁻¹
Kd (TGF-β3 [3]): 7.93 pM
koff (TGF-β3 [3]): 2.75e-06 s⁻¹
kon (TGF-β3 [3]): 346000 M⁻¹ s⁻¹
Kd (TGF-β2 [4]): 72.3 pM
koff (TGF-β2 [4]): 4.98e-05 s⁻¹
kon (TGF-β2 [4]): 690000 M⁻¹ s⁻¹
EC50, TGF-β isoform neutralization (TGF-β2 [5]): 590 pM
EC50 for neutralization of TGF-β (TGF-β2 [5]): 382 picomol/L
EC50, TGF-β isoform neutralization (TGF-β3 [6]): 225 pM
EC50 for neutralization of TGF-β (TGF-β3 [6]): 19 picomol/L
EC50, TGF-β isoform neutralization (TGF-β1 [7]): 47.8 pM
EC50 for neutralization of TGF-β (TGF-β1 [7]): 164 picomol/L
Kd (TGF-β1 [8]): 87.3 pM
koff (TGF-β1 [8]): 4.06e-05 s⁻¹
kon (TGF-β1 [8]): 470000 M⁻¹ s⁻¹
Kd (TGF-β2 [9]): 82 pM
koff (TGF-β2 [9]): 5.54e-05 s⁻¹
kon (TGF-β2 [9]): 675000 M⁻¹ s⁻¹
Kd (TGF-β3 [10]): 16 pM
koff (TGF-β3 [10]): 5.06e-06 s⁻¹
kon (TGF-β3 [10]): 316000 M⁻¹ s⁻¹
IC50 (read off the curve) (TGF-β3 [11]): 20 pM
Kd (TGF-β1 [12]): 102 pM
koff (TGF-β1 [12]): 4.23e-05 s⁻¹
kon (TGF-β1 [12]): 416000 M⁻¹ s⁻¹
IC50 (read off the curve) (TGF-β1 [13]): 200 pM
Kd (TGF-β1 [14]): 73.3 pM
koff (TGF-β1 [14]): 3.78e-05 s⁻¹
kon (TGF-β1 [14]): 515000 M⁻¹ s⁻¹
Kd (TGF-β2 [15]): 83.2 pM
koff (TGF-β2 [15]): 5.17e-05 s⁻¹
kon (TGF-β2 [15]): 621000 M⁻¹ s⁻¹
IC50 (read off the curve) (TGF-β2 [16]): 400 pM
Kd (TGF-β3 [17]): 11.6 pM
koff (TGF-β3 [17]): 3.57e-06 s⁻¹
kon (TGF-β3 [17]): 310000 M⁻¹ s⁻¹
Kd (TGF-β3 [18]): 10.8 pM
koff (TGF-β3 [18]): 2.9e-06 s⁻¹
kon (TGF-β3 [18]): 268000 M⁻¹ s⁻¹
IC50 for neutralization of TGF-β (TGF-β2 [19]): 0.492
IC50 for neutralization of TGF-β (TGF-β3 [20]): 0.0547
IC50 for neutralization of TGF-β (TGF-β1 [21]): 0.0722
IC50 (read off the curve) (TGF-β1 [22]): 100 pM
IC50 (read off the curve) (TGF-β3 [23]): 30 pM
Kd (TGF-β1 [24]): 87.3 pM
koff (TGF-β1 [24]): 4.18e-05 s⁻¹
kon (TGF-β1 [24]): 479000 M⁻¹ s⁻¹
B1: 1D11 (PCT-001), mouse monoclonal anti-TGF-β antibody (antibody, from another filing, V domains shown)
VH: QVQLQQSGPELVRPGASVKLSCKASGYIFITYWMNWVKQRPGQGLEWIGQIFPASGSTNYNEMFEGKATLTVDTSSSTAYMQLSSLTSEDSAVYYCARGDGNYALDAMDYWGQGTSVTVSS
VL: DIVLTQSPASLAVSLGQRATISCRASESVDSYGNSFMHWYQQKSGQPPKLLIYLASNLESGVPARFSGSGSRTDFTLTIDPVEADDAATYYCQQNNEDPLTFGAGTKLEIK

Source: patent US20190248881A1
